Reference: article PMC8233230, “RAD51AP1 mediates RAD51 activity through nucleosome interaction” (The Journal of Biological Chemistry, 2021)
Blank lines part the entries; values can stand above or below the molecule they belong to.

Columns and labels:
[1] = test system: RAD51AP1 full-length, His6/FLAG (human); test: EMSA; conditions: apparent, EMSA: 50 mM Tris-HCl pH 7.5, 100 mM NaCl, 4 C, 30 min, native 5% PAGE in 0.2x TBE
[2] = target: mononucleosome core particle (NCP) (human) (UniProt P04908); test: native gel or EMSA; apparent; full-length RAD51AP1 with the NCP, free NCP band quantified after ethidium bromide staining, corrected for the diminished staining of NCP-bound DNA
purified human RAD51 = target: T1, purified human RAD51 (human, UniProt Q06609 1-339); test: far-Western, overlay or dot blot; RAD51AP1/NCP complex separated by EMSA (native gel), transferred to PVDF, membrane incubated with 3 ug/ml purified RAD51 in buffer I at 4 C overnight, bound RAD51 detected with anti-RAD51; conditions: both partners purified
T1 construct: DNA repair protein RAD51 homolog 1 (RAD51 recombinase), human; also called RAD51 recombinase; source: purified
T1 sequence (looked up): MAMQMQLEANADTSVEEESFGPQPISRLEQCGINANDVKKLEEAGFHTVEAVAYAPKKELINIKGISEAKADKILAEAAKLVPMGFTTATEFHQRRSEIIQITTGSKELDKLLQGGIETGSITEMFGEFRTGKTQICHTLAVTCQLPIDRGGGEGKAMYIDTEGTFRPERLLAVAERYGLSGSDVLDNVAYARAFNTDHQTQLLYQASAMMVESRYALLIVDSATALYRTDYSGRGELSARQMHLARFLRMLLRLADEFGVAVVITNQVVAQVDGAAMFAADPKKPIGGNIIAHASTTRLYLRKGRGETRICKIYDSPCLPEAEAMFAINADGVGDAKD

Molecule: NCP (Widom 601, 147 bp)
- Kd ([1]; corrected for EtBr staining (111/5.2; uncorrected 111 nM), 0.2 uM NCP): 21 nM

- Kd [2]: 21 nM
Molecule: full-length MBP-/His6-RAD51AP1 (from UniProt Q96B01-2 1-335) (natural protein)

Molecule: 147 bp dsDNA (Widom 601)
- Kd ([1]; 0.1 uM DNA, EtBr stain): 12 nM

- binding result (purified human RAD51): binds
B1: His6-/FLAG-tagged human RAD51AP1 (natural protein, UniProt Q96B01-2 1-335, looked up)
chain: MVRPVRHKKPVNYSQFDHSDSDDDFVSATVPLNKKSRTAPKELKQDKPKPNLNNLRKEEIPVQEKTPKKRMALDDKLYQRDLEVALALSVKELPTVTTNVQNSQDKSIEKHGSSKIETMNKSPHISNCSVASDYLDLDKITVEDDVGGVQGKRKAASKAAAQQRKILLEGSDGDSANDTEPDFAPGEDSEDDSDFCESEDNDEDFSMRKSKVKEIKKKEVKVKSPVEKKEKKSKSKCNALVTSVDSAPAAVKSESQSLPKKVSLSSDTTRKPLEIRSPSAESKKPKWVPPAASGGSRSSSSPLVVVSVKSPNQSLRLGLSRLARVKPLHPNATST
notes: numbers count on: RAD51AP1 isoform 2; also called His6/FLAG-tagged RAD51AP1; full-length FLAG-tagged RAD51AP1; source: expressed and purified
